Measurements as given in patent US20120058906A1 (published 2012).

Tests used:
[1] = molecular target: T1, rHuman Erythropoietin R/Fc Chimera, CF (R&D Systems Cat#963-ER) (human, UniProt P19235 25-250); experiment: ECL (MSD multi-spot), antigen spotted on plate; Fab 88.1 nM; blank spot 301
T1 construct: Bought reagent; also called EPO R/Fc; Epo R; Fc part of the bought chimera not given
T1 sequence: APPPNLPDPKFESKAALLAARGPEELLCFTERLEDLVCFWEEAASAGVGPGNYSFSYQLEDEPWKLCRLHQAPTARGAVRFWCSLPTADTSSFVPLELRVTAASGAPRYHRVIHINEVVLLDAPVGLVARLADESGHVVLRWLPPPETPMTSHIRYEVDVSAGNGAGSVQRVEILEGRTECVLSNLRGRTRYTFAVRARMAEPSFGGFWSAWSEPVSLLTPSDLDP

[2] = molecular target: T2, Recombinant Human DLL4 (R&D Systems Cat#1506-D4/CF) (human, UniProt Q9NR61 27-524); experiment: as above
T2 construct: Bought reagent; also called delta-like protein 4

[3] = molecular target: T3, rHuman ErbB2/Fc Chimera, CF (R&D Systems Cat#1129-ER) (human, UniProt P04626 23-652); experiment: as above
T3 construct: Bought reagent; also called HER2/neu; human epidermal growth factor 2 receptor; Fc part of the bought chimera not given

[4] = molecular target: T4, rHuman EGF R/Fc Chimera, CF (R&D Systems Cat#344-ER) (human, UniProt P00533 25-645); experiment: as above
T4 construct: Bought reagent; also called epidermal growth factor receptor; Fc part of the bought chimera not given

[5] = molecular target: T5, rHuman HGF R/c-MET/Fc Chimera, CF (R&D Systems Cat#358-MT/CF) (human, UniProt P08581 25-932); experiment: as above
T5 construct: Bought reagent; also called HGF R/Fc; hepatocyte growth factor receptor; Fc part of the bought chimera not given

[6] = molecular target: T6, rHuman Notch-1/Fc Chimera, CF (R&D Systems Cat#3647-TK) (human, UniProt P46531 19-526); experiment: as above
T6 construct: Bought reagent; Fc part of the bought chimera not given

[7] = molecular target: T7, rHuman CD44/Fc Chimera, CF (R&D Systems Cat#3660-CD) (human, UniProt P16070 21-220); experiment: as above
T7 construct: Bought reagent; Fc part of the bought chimera not given

[8] = molecular target: T8, rHuman P-Cadherin/Fc Chimera, CF (R&D Systems Cat#861-PC) (human, UniProt P22223 108-654); experiment: as above
T8 construct: Bought reagent; also called CDH3; Fc part of the bought chimera not given

[9] = molecular target: T9, rHuman CD44/Fc Chimera, CF (R&D Systems Cat#3660-CD) (human, UniProt P16070 21-220); experiment: ECL (MSD Multi-Spot) binding, antigen spotted on plate; Fab 5 nM
T9 construct: Bought Fc chimera; Fc part of the bought chimera not given

[10] = molecular target: T10, rHuman IGF-1 sR, CF (R&D Systems Cat#391-GR) (human, UniProt P08069 31-932); experiment: as above
T10 construct: Bought soluble receptor; also called insulin-like growth factor-1 soluble receptor; IGF-R1

[11] = molecular target: T11, rHuman P-Cadherin/Fc Chimera, CF (R&D Systems Cat#861-PC) (human, UniProt P22223 108-654); experiment: as above
T11 construct: Bought Fc chimera; Fc part of the bought chimera not given

[12] = molecular target: T12, rHuman Erythropoietin R/Fc Chimera, CF (R&D Systems Cat#963-ER) (human, UniProt P19235 25-250); experiment: as above
T12 construct: Bought Fc chimera; also called EPO R/Fc; erythropoietin receptor; Fc part of the bought chimera not given
T12 sequence: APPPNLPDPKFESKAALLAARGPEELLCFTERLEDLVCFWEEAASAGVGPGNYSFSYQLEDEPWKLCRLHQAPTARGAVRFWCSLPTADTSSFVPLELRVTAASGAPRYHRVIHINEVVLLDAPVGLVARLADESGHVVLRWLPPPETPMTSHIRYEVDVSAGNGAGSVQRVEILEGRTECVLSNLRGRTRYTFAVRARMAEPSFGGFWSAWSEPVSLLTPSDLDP

[13] = molecular target: T13, Recombinant Human DLL4 (R&D Systems Cat#1506-D4/CF) (human, UniProt Q9NR61 27-524); experiment: as above
T13 construct: Bought recombinant protein; also called delta-like protein 4

[14] = molecular target: T14, rHuman ErbB2/Fc Chimera, CF (R&D Systems Cat#1129-ER) (human, UniProt P04626 23-652); experiment: as above
T14 construct: Bought Fc chimera; also called human epidermal growth factor 2 receptor; HER2/neu; Fc part of the bought chimera not given

[15] = molecular target: T15, rHuman EGF R/Fc Chimera, CF (R&D Systems Cat#344-ER) (human, UniProt P00533 25-645); experiment: as above
T15 construct: Bought Fc chimera; also called epidermal growth factor receptor; Fc part of the bought chimera not given

[16] = molecular target: T16, rHuman HGF R/c-MET/Fc Chimera, CF (R&D Systems Cat#358-MT/CF) (human, UniProt P08581 25-932); experiment: as above
T16 construct: Bought Fc chimera; also called HGF R/Fc; hepatocyte growth factor receptor; Fc part of the bought chimera not given

[17] = molecular target: T17, rHuman Notch-1/Fc Chimera, CF (R&D Systems Cat#3647-TK) (human, UniProt P46531 19-526); experiment: as above
T17 construct: Bought Fc chimera; Fc part of the bought chimera not given

[18] = molecular target: T18, rHuman P-Cadherin/Fc Chimera, CF (R&D Systems Cat#861-PC) (human, UniProt P22223 108-654); experiment: ECL (MSD multi-spot), antigen on plate, Fab 10 nM
T18 construct: Bought Fc chimera; also called CDH3; not shown: Fc of the bought chimera
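Also: blank spot per well as comparator with Hit at signal to blank ratio of 4 or more.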

B1: Fab VH1-46_IGHD3-10*01_IGHJ4*01 & B3_IGKJ1*01 (Fab, V domains shown)
VH: QVQLVQSGAEVKKPGASVKVSCKASGYTFTSYYMHWVRQAPGQGLEWMGIINPSGGSTSYAQKFQGRVTMTRDTSTSTVYMELSSLRSEDTAVYYCAREYYYGSGSYYNDYFDYWGQGTLVTVSS
VL: not shown
notes: also called IGHV1-46*01
ECL signal [1]: 3370 | ECL signal [2]: 434 | ECL signal [3]: 200 | ECL signal [4]: 376 | ECL signal [5]: 392 | ECL signal [6]: 440 | ECL signal [7]: 340 | ECL signal [8]: 278

B2: Fab VH1-46_IGHD6-6*01_IGHJ1*01_S102A_S103P_S104F_H111Y & L6_IGKJ1*01 (Fab, V domains shown)
VH: QVQLVQSGAEVKKPGASVKVSCKASGYTFTSYYMHWVRQAPGQGLEWMGIINPSGGSTSYAQKFQGRVTMTRDTSTSTVYMELSSLRSEDTAVYYCAREEYAPFSAEYFQYWGQGTLVTVSS
VL: not shown
notes: Fab made in E. coli; The heavy chain also carries the CH1 with Flag and His tags of Plasmid A, and the light chain the kappa constant region of Plasmid C
ECL signal [9]: 413 | ECL signal [10]: 320 | ECL signal [11]: 437 | ECL signal [12]: 377 | ECL signal [13]: 84900 | ECL signal [14]: 315 | ECL signal [15]: 311 | ECL signal [16]: 323 | ECL signal [17]: 383

B3: Fab VH1-46_IGHD6-6*01_IGHJ1*01_S102A_S103P_S104F & L6_IGKJ1*01_S30N (Fab, V domains shown)
VH: QVQLVQSGAEVKKPGASVKVSCKASGYTFTSYYMHWVRQAPGQGLEWMGIINPSGGSTSYAQKFQGRVTMTRDTSTSTVYMELSSLRSEDTAVYYCAREEYAPFSAEYFQHWGQGTLVTVSS
VL: EIVLTQSPATLSLSPGERATLSCRASQSVNSYLAWYQQKPGQAPRLLIYDASNRATGIPARFSGSGSGTDFTLTISSLEPEDFAVYYCQQRSNWPPWTFGQGTKVEIKR
notes: Fab
ECL signal [18]: 283 ECL signal
